Source: PMC12255305, “A transfer RNA methyltransferase with an unusual domain composition catalyzes 2′-O-methylation at position 6 in tRNA” (Nucleic Acids Research, 2025)
Substitutions are numbered along the chain they refer to. In names and notes the source's numbering stands.

Key:
[1] = biological target: SPOUT catalytic domain of TrmTS (lacks NFLD and THUMP domain, residues 2-151) (Thermococcus kodakarensis) (UniProt Q5JGM1); test: SEC; Superdex 200 10/300, room temperature; 150 ug truncated TrmTS heated at 50°C for 10 min, run in buffer C (50 mM Tris-HCl pH 8.0, 500 mM KCl, 300 mM ammonium sulfate); size standards 29-150 kDa
purified protein = substrate: C[S+](CC[C@H](N)C(=O)O)C[C@H]1O[C@@H](n2cnc3c(N)ncnc32)[C@H](O)[C@@H]1O; test: purified protein; settings: 35 μM T. kodakarensis tRNA-Trp transcript, 3 μM enzyme (not fully steady-state), 5 mM MgCl2, 300 mM KCl, pH 7.6, 75°C, mixture of unlabelled and 3H-labelled compound :1
[2] = biological target: the molecule itself; test: SEC; Superdex 200 10/300, room temperature; 200 ug full-length TrmTS heated at 75°C for 10 min, then run in buffer SEC (50 mM sodium phosphate pH 8.0, 500 mM KCl, 6 mM 2-mercaptoethanol, 5% glycerol); sample buffer also held 0.1% Triton X-100; size standards 29-150 kDa
[3] = biological target: T1, TrmTS (TK1257 gene product) (Thermococcus kodakarensis KUW1, UniProt Q5JGM1 1-355); test: competition (inhibition of methylation of wild-type tRNA-Trp transcript); SAM; competitor against wild-type tRNA-Trp transcript; Inhibition assay conditions (buffer, salt, pH, temperature) not given in the material; settings: protein: recombinant; tags: none (untagged; native start and stop codons in pET30a); chain copies: 2; tRNA cloverleaf
T1 sequence: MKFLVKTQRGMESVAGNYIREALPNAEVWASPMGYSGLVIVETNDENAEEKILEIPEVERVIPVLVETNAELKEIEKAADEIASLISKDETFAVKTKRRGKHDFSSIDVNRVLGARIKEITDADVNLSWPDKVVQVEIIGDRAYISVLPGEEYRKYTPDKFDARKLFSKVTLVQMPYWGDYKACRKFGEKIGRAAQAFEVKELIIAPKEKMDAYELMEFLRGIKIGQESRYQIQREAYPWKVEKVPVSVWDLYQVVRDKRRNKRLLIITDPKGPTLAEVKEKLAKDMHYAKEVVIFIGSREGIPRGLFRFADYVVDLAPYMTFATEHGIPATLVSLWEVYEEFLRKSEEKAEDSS

SPOUT catalytic domain of TrmTS (lacks NFLD and THUMP domain, residues 2-151) (from UniProt Q5JGM1 152-355) (domain or fragment)
stoichiometry N [1]: 2

B1: TrmTS (TK1257 gene product), full-length wild type (enzyme, Thermococcus kodakarensis, UniProt Q5JGM1 1-355, looked up)
chain: T1 sequence
notes: TK1257 gene product (TrmTS), tRNA 2'-O-methyltransferase of Thermococcus kodakarensis strain KUW1, 355 amino acids; NFLD, THUMP, linker and SPOUT domains; gene amplified from the ATG to the stop codons; Cloned between NdeI and BamHI of pET30a with its own stop codons; also called full-length TrmTS; wild-type TrmTS; source: E. coli BL21 (DE3) Rosetta 2, purified (75°C heat step, HiTrap Q HP, …)
Km (purified protein): 23 µM
stoichiometry N [2]: 4

B2: TrmTS (TK1257 gene product) (Thermococcus kodakarensis KOD1; E301A) (protein)
chain: T1 sequence with E301A
Km (purified protein): 21 ± 5.1 µM

B3: TrmTS (TK1257 gene product) (Thermococcus kodakarensis KOD1; K155A) (protein)
chain: T1 sequence with K155A
Km (purified protein): 44 ± 7.6 µM

B4: tRNA-Trp C6G-G67C transcript (G6-C67) (structured_RNA)
RNA: GGGGGGGUGGUGUAGCCUGGUCCAUCAUCGCGGGCUCCAGACCCGCGGACCGGGGUUCAAAUCCCCGCCCCCCCACCA
IC50 [3]: ~30 µM
